Measured values taken from patent US7109167.
No end group written: not given here.

Columns and labels:
[1] = molecular target: endothelial cell receptor for TKPPR on human aortic endothelial cells (HAEC); experiment: 5% BRU-114 bubbles on HAEC, static
[2] = molecular target: KB cells (human epidermoid carcinoma cell line), cell surface; experiment: 5% BRU-114 bubbles on KB cells, static
[3] = molecular target: endothelial cell receptor for TKPPR on human aortic endothelial cells (HAEC); experiment: 5% BRU-114 bubbles on HAEC, static, no competitor
[4] = molecular target: receptor for TKPPR on rabbit aortic endothelial cells (RAEC); experiment: 5% BRU-114 bubbles on RAEC, static, no competitor
[5] = molecular target: endothelial cell receptor for TKPPR on human aortic endothelial cells (HAEC); experiment: 1% BRU-114 bubbles on HAEC, static, no competitor
[6] = molecular target: endothelial cell receptor for TKPPR on human aortic endothelial cells (HAEC); experiment: 2% BRU-114 bubbles on HAEC, static, no competitor
[7] = molecular target: endothelial cell receptor for TKPPR on human aortic endothelial cells (HAEC); experiment: 10% BRU-114 bubbles on HAEC, static, no competitor
[8] = molecular target: endothelial cell receptor for TKPPR on human aortic endothelial cells (HAEC); experiment: microbubbles with 1% BRU-114 on HAEC, static, no competitor
[9] = molecular target: endothelial cell receptor for TKPPR on human aortic endothelial cells (HAEC); experiment: microbubbles with 5% BRU-114 on HAEC, static, no competitor
[10] = molecular target: endothelial cell receptor for TKPPR on human aortic endothelial cells (HAEC); experiment: 5% BRU-114 bubbles on HAEC, static, no competitor (control)
[11] = molecular target: endothelial cell receptor for TKPPR on human aortic endothelial cells (HAEC); experiment: microbubbles with 5% BRU-114 on HAEC, static inverted culture
[12] = molecular target: endothelial cell receptor for TKPPR on human aortic endothelial cells (HAEC); experiment: microbubbles on HAEC, static, manual count, 5% against 1% BRU-114
[13] = molecular target: endothelial cell receptor for TKPPR on human aortic endothelial cells (HAEC); experiment: 1% BRU-114 bubbles on HAEC, static, no competitor, average of duplicates
[14] = molecular target: endothelial cell receptor for TKPPR on human aortic endothelial cells (HAEC); experiment: 2% BRU-114 bubbles on HAEC, static, no competitor, average of duplicates
[15] = molecular target: endothelial cell receptor for TKPPR on human aortic endothelial cells (HAEC); experiment: 5% BRU-114 bubbles on HAEC, static, no competitor (same control as the 20th table)
[16] = molecular target: endothelial cell receptor for TKPPR on human aortic endothelial cells (HAEC); experiment: 5% BRU-114 bubbles on HAEC, static, cells pretreated 4 h with 0 ng/mL TNFα
[17] = molecular target: endothelial cell receptor for TKPPR on human aortic endothelial cells (HAEC); experiment: 5% BRU-114 bubbles on HAEC, static, cells pretreated 4 h with 1 ng/mL TNFα
[18] = molecular target: endothelial cell receptor for TKPPR on human aortic endothelial cells (HAEC); experiment: 5% BRU-114 bubbles on HAEC, static, cells pretreated 4 h with 5 ng/mL TNFα
[19] = molecular target: endothelial cell receptor for TKPPR on human aortic endothelial cells (HAEC); experiment: 5% BRU-114 bubbles on HAEC, static, cells pretreated 4 h with 10 ng/mL TNFα

B1: DPPE-Glu-GTKPPR (BRU-114) in gas-filled microbubbles (peptide)
peptide: GTKPPR-OH
modifications: not fully specified (N-terminus); also: built into phospholipid gas-filled microbubbles
- HAEC bubble binding [1]: 1120 bubbles
- KB cell bubble binding [2]: 56 bubbles
- Bubbles Bound-5% [3]: 2780 bubbles
- HAEC bubbles bound [3]: 1420 bubbles
- RAEC bubbles bound [4]: 751 bubbles
- Bubbles Bound-1% [5]: 1640 bubbles
- Bubbles Bound % [6]: 100 % of control
- Bubbles Bound-10% [7]: 1860 bubbles
- bubbles bound, no competition [8]: 555 bubbles
- bubbles bound, no competition [9]: 726 bubbles
- Bubbles Bound [10]: 1250 bubbles
- Bubbles Bound [11]: 7050 bubbles
- % more bubbles bound than with the 1% composition [12]: 31%
- Bubbles Bound [13]: 737 bubbles
- Bubbles Bound [14]: 953 bubbles
- Bubbles Bound [15]: 1250 bubbles
- TKPPR-Bubbles bound [16]: 950 bubbles
- TKPPR-Bubbles bound [17]: 1520 bubbles
- TKPPR-Bubbles bound [18]: 1360 bubbles
- TKPPR-Bubbles bound [19]: 1020 bubbles
